Drawing on PMC8041772, “Activation mechanism of a small prototypic Rec-GGDEF diguanylate cyclase” (Nature Communications, 2021), this text covers Ki and stoichiometry N for three molecules.

The term Ki denotes the dissociation constant of the complex between target and ligand, obtained from inhibition or displacement. The term stoichiometry N denotes a count of units in the complex or per binding partner.

For assay [1], the target named is T1, DgcR (Leptospira biflexa, UniProt B0SUI1).
T1 construct: gene LEPBI_p0053; full-length (298 residues), dimer
T1 sequence (B0SUI1 1-298): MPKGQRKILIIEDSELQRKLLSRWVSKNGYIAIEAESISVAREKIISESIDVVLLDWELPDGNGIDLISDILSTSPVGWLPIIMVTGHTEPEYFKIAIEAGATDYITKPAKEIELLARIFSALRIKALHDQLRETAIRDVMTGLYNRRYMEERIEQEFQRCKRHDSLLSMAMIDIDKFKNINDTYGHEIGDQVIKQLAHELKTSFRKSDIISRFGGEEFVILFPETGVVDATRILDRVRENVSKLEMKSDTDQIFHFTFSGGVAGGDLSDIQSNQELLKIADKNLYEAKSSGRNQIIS
The assay is described as follows: crystal structure at […] Å (DgcR_inh); product-inhibition Ki from progress curves (oIEC), about […] for BeF3-activated and about […] for native enzyme. In kind it is biochemical.

The target of assay [2] is DgcR wild type, BeF3- modified (pseudo-phosphorylated, activated) (Leptospira biflexa). In words: SEC-MALS; in-line multi-angle light scattering and refractive index; 100 µL loaded at 0.5 to 10 mg/mL with various ligands; 20 mM Tris pH 8.0, 500 mM NaCl (or 20 mM NaCl), 5 mM MgCl2, 1 mM DTT; substrate analogue, product or lower salt did not change the quaternary state.
For assay [3], the target named is DgcR (LEPBI_RS18680, diguanylate cyclase controlled by Rec) from Leptospira biflexa, wild type, native (Leptospira biflexa). Described as above.

Molecule `Nc1nc2c(ncn2[C@@H]2O[C@@H]3CO[P@](=O)(O)O[C@H]4[C@@H](O)[C@H](n5cnc6c(=O)[nH]c(N)nc65)O[C@@H]4CO[P@](=O)(O)O[C@H]3[C@H]2O)c(=O)[nH]1` [c-di-GMP] came in with a Ki in assay [1] of approximately 150 nM.

Regarding “DgcR wild type, BeF3- modified (pseudo-phosphorylated, activated) (enzyme)”, the stoichiometry N in assay [2] came to 2.

Consider “DgcR (LEPBI_RS18680, diguanylate cyclase controlled by Rec) from Leptospira biflexa, wild type, native (enzyme)”, for which the stoichiometry N in assay [3] is 2.
